The values below are quoted from earlier work in publication PMC8894612.

The Kd is the equilibrium constant for the complex coming apart.

The series concerns the target Regnase-1 (UniProt Q5D1E7). The series is described as follows: Biacore SPR. In general terms: Surface plasmon resonance follows binding to a sensor surface in real time, without labels.
Sequence of UniProt Q5D1E7 (Q5D1E7 whole entry): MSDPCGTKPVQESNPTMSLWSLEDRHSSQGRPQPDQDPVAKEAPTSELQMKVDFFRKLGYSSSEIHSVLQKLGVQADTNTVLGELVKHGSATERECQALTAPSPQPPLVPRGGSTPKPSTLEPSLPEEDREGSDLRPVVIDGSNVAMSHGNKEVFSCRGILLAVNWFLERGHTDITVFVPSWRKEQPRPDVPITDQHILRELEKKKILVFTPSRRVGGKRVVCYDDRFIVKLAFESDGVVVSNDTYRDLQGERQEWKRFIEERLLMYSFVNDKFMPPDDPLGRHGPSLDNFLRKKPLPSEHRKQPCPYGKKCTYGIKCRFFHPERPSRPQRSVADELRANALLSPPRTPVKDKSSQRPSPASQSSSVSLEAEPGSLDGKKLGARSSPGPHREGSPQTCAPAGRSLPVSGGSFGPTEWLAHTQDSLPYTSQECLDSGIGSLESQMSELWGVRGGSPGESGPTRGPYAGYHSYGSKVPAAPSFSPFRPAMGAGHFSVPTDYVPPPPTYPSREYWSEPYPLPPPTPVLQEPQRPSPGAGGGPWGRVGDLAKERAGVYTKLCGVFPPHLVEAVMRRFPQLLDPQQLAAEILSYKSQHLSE

In the case of Roquin-1 (from UniProt Q4VGL6), the Kd was 417 nM.
